Data from US20130302353A1 (published 2013).

T1: IRSMPSHPDRA (SEQ ID NO:33) (human)
T1 construct: the peptides on the cards were longer and mostly CLIPS-constrained
T1 peptide: IRSMPSHPDRA

T2: FLAG-hAPRIL captured by BCMA-Fc (human, UniProt O75888 110-250; Q02223 1-54, limits assumed)
T2 construct: also called APRIL-BCMA complex; receptor-ligand complex; not shown: FLAG tag; Fc of human IgG1
T2 sequence (looked up) 1: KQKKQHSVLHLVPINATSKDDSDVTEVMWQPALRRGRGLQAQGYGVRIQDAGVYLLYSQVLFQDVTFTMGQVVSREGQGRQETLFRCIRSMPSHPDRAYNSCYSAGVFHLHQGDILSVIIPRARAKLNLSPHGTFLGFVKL
T2 sequence (looked up) 2: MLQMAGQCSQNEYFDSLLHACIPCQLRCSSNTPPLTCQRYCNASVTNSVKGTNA

T3: VSREGQGRQ (SEQ ID NO:38) motif (human)
T3 construct: the peptides on the cards were longer and mostly CLIPS-constrained; also called core region EGQ
T3 peptide: VSREGQGRQ

B1: hAPRIL.01A (antibody, IgG1, V domains shown)
VH: EVQLQQSGPELVKPGASVKMSCKASGYTFTSYVMHWVKQKPGQGLEWIGYINPYNDAPKYNEKFKGKATVTSDKSSGTAYMELSSLTSEDSAVYYCARGLGYALYYAMDYWGQGTSVTVSS
VL: DIVMTQSQKFKSTSVGDRVSVTCKASQNVGNNVAWYQQKAGQSPKALISSASNRDSGVPDRFTGSGSGTDFTLTISNVQSEDLADYFCQQYNIYPFTFGSGTELEIK
notes: Mouse antibody from a hybridoma; also called hAPRIL.01A hybridoma supernatant; purified hAPRIL.01A
B2: hAPRIL.03A (antibody, IgG1, V domains shown)
VH: QVTLKESGPGILQPSQTLSLTCSFSGFSLSTYGIGVGWIRQPSGKGLEWLAHIWWNDNKYYNTALKSRLTISKDTSNNQVFLKIASVDTADTATYYCARIAGGNYDYAMDHWGQGTSVTVSS
VL: QIVLTQSPAIMSTSPGEKVTLTCSASSSVSSTYLYWYQQKPGSSPKLWIYSTSNLASGVPARFSGSGSGTSYSLTISSMEAEDAASYFCHQWSSYPPTFGAGTKLELK
notes: Mouse antibody from a hybridoma; also called hAPRIL.03A hybridoma supernatant; purified hAPRIL.03A

Experiments:
[1] = biological target: T1, IRSMPSHPDRA (SEQ ID NO:33); assay: Pepscan ELISA on linear and CLIPS peptides
Procedure: (§1) The synthetic linear and CLIPS peptides were synthesized and screened using credit-card format mini PEPSCAN cards (455-well plate with 3 ul wells) as described by Slootstra et al. (Slootstra et al., 1996, Mol. Diversity. 1, 87-96) and Timmerman et al. (Timmerman et al., 2007, J. Mol. Recognit. 20, 283-299). The binding of antibodies (hAPRIL.01A and hAPRIL.03A) to each peptide was tested in a PEPSCAN-based enzyme-linked immuno assay (ELISA). The 455-well creditcard-format polypropylene cards, containing the covalently linked peptides, were incubated with sample (for example 1 ug/ml antibody diluted in a PBS solution containing 5% horse serum (vol/vol) and 5% ovalbumin (weight/vol)) and 1% Tween 80 (4° C., overnight). After washing the peptides were incubated with an anti-antibody peroxidase (dilution 1/1000, for example rabbit anti-mouse peroxidase, Southern Biotech) (1 hour, 25° C.), and subsequently, after washing the peroxidase substrate 2,2′-azino-di-3-ethylbenzthiazoline sulfonate (ABTS) and […] 3% H2O2 were added. After 1 hour the color development was measured. The color development of the ELISA was quantified with a CCD-camera and an image processing system. […]
(§2) Each antibody was tested on all 4225 peptides and their binding values were ranked. […] For hAPRIL.01A it was determined that it binds to […] […]

[2] = biological target: T2, FLAG-hAPRIL captured by BCMA-Fc; assay: ELISA, FLAG-hAPRIL captured by coated BCMA-Fc
Procedure: Protein-based ELISA experiments using purified hAPRIL.01A and hAPRIL.03A antibodies were performed to determine apparent binding affinities (reported as EC₅₀ values). Binding was compared to mouse anti-hAPRIL IgG1 Aprily-5 (Alexis). Maxisorp 96-well immunoplates (Nunc) were coated with either rabbit anti-FLAG polyclonal antibody (Sigma) or BCMA-Fc (R&D Systems) at 50 ng/well in PBS overnight at 4° C. and blocked with 10% Goat serum/PBST for 1 hour at RT. Plates were washed with PBST 3 times and incubated with supernatant (1:4 in PBS) containing FLAG-hAPRIL for 1 hour at RT. Plates were again washed with PBST 3 times and incubated with hAPRIL.01A, hAPRIL.03A, and Aprily-5 antibodies (10 μg/ml high test with 10-fold dilutions in triplicates) for 1 h at RT. After three washes with PBST, bound antibodies were detected with goat anti-mouse IgG-HRP (1:2,000) (Southern Biotechnology) for 1 hour at RT. Plate was washed three times with PBST, and APRIL-reactivity was visualized with OptiEIA TMB substrate (Becton Dickinson). The concentration for half-maximal binding is reported as a measure of relative binding affinity. When FLAG-hAPRIL was captured by the anti-FLAG antibody (FIG. 2A), EC₅₀ values for hAPRIL.01A, hAPRIL.03A and Aprily-5 were calculated as 2.2, 1.4, and 1.7 nM, respectively. […] In contrast, binding of hAPRIL.03A to the APRIL-BCMA complex was observed.

[3] = biological target: T3, VSREGQGRQ (SEQ ID NO:38) motif; assay: Pepscan ELISA on linear and CLIPS peptides
Procedure: as §1, §2

Binder | binding result [1] | binding result [2] | binding result [3]
B1 | binds | no binding (tested: 10 µg/ml high test) | 
B2 |  |  | binds
